In general, Kd refers to the free concentration of one partner at which half of the binding sites on the other are occupied at equilibrium, for simple one-to-one binding. One may read the stoichiometry N as a count of units in the complex or per binding partner.

One test deals with TEL SAM (Homo sapiens) (UniProt P41212). As to conditions: cited from earlier work.
In test [1] the target is Yan SAM (Drosophila melanogaster) (UniProt Q01842). The note with it: cited from earlier work.
Test [2] deals with SLy1 SAM domain construct SAMwt (SLy1 residues P254-E321 with an N-terminal glycine from the tag) (mouse) (UniProt Q8K352). Kind of test: AUC; sedimentation equilibrium, 30 °C, standard buffer (50 mM potassium phosphate, 20 mM NaCl, 0.1 mM EDTA, pH 6.4) without NaN3; three loading concentrations (SAMwt 60, 120, 300 µM; SAMlg 31, 64, 98 µM) at several speeds; global fit to a monomer-dimer equilibrium; dimer to monomers.

The target is the same in test [3]. Kind of test: MST; Alexa Fluor 488 labelled protein kept constant (SAMwt 70 nM, SAMlg 60 nM), total protein varied (SAMwt 1.1-824 µM, SAMlg 0.2-250 µM); standard buffer pH 6.4, room temperature; fit to a monomer-dimer equilibrium; dimer to monomers.

TEL SAM, sequence (P41212 40-124): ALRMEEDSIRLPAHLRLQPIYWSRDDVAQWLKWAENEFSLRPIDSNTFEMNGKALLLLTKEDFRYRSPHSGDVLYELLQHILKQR
Yan SAM, sequence (Q01842 33-117): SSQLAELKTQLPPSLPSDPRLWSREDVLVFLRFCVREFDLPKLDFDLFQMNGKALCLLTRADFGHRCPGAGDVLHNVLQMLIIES

Turning to TEL SAM (from UniProt P41212), the Kd with TEL SAM (Homo sapiens) is 0.0017 µM.

With Yan SAM (from UniProt Q01842), the Kd in test [1] is 11 µM.

In the case of “SLy1 SAM domain construct SAMwt (SLy1 residues P254-E321 with an N-terminal glycine from the tag) (from UniProt Q8K352 254-321) (domain or fragment)”, in test [2], the Ka was determined as 8500 M⁻¹, the Kd was determined as 117 µM and the stoichiometry N came to 2. The same substance registered a Kd in test [3] of 153 µM.

These data come from paper PMC6328559.
